The RNAGym collection of RNA variant scans (doi:10.1093/nar/gkz1192)

B1: CPEB3 Ribozyme (parent)
chain: UAACAGGGGGCCACAGCAGAAGCGUUCACGUCGCAGCCCCUGUCAGAUUCUGGUGAAUCUGCGAAUUCUGCUGUAUAUCUC

Variants of: B1
Test: self-cleavage, relative activity (ratio to wild type); higher = more cleavage; in vitro, sequencing
Procedure, shortened: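 After error-prone PCR and barcoding, CPEB3 ribozyme mutant libraries were transcribed with T7 RNA polymerase at 37°C for 5 hours, then given 15 min with DNase I before an EDTA stop, and they cleaved during both steps. Reverse transcription with template switching preceded Illumina sequencing. Relative activity divides a variant's cleaved/total read fraction by the unmutated ribozyme's. At least 5 reads were required per variant, and three batches were averaged.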

Variant | self-cleavage
A21U U31C | 0.3
A21U U31G | 0.13
A21U U31A | 0.13
C23A U51C | 0.27
C23A U51A | 0.37
A21U U78C | 0.25
A21U U78A | 0.38
C23A A28G | 0.18
C23A A28U | 0.14
A21U U80A | 0.44
A21U U80C | 0.53
C23A U49A | 0.25
C23A C38U | 0.49
G22U U67C | 0.06
G22A U54C | 0.2
C23G A35U | 0.19
A21U C38U | 0.29
A21U G24A | 0.33
G22U G61C | 0.14
G22A A28U | 0.12
G22A A28G | 0.4
G22A A28C | 0.21
A21U C81A | 0.45
A21U C81U | 0.29

Variant | self-cleavage
G22U A56G | 0.2
A21U C71U | 0.16
A21U C71G | 0.09
C23G | 0.26
C23A | 0.3
C23A C62U | 0.21
C23G U43C | 0.25
C23A C40G | 0.23
C23G U41C | 0.21
C23G U41A | 0.1
G22A C68G | 0.11
G22A A75U | 0.37
C23A U58C | 0.56
C23A U58A | 0.18
C23A U66A | 0.1
G22U U76A | 0.33
C23G U60A | 0.19
C23G U60C | 0.07
G22A C38U | 0.17
G22C G42U | 0.11
A21G U67A | 0.24
A21G U67C | 0.24
C23G U26A | 0.1
C23G U26C | 0.25

Variant | self-cleavage
A21U A75U | 0.37
A21U A75G | 0.27
C23A U78C | 0.12
C23A U78A | 0.21
C23A U78G | 0.08
A21G U76C | 0.63
A21G U76G | 0.66
A21G U76A | 0.55
G22A U31A | 0.34
A21U U54G | 0.26
A21U U54A | 0.29
A21U U54C | 0.29
G22C G52C | 0.2
C23G U48C | 0.29
C23A U67C | 0.17
C23A U67A | 0.16
G22A A35G | 0.68
G22A A35U | 0.19
G22A A45G | 0.14
G22A A45U | 0.11
A21U A56C | 0.18
A21U A56U | 0.2
A21U A56G | 0.25
C23A A35G | 0.27

Variant | self-cleavage
C23A A35U | 0.31
G22C U74G | 0.19
A21U A65G | 0.34
C23A U43C | 0.23
C23A U43A | 0.28
G22A A77U | 0.1
C23A U60G | 0.06
C23A U60C | 0.33
C23A U60A | 0.19
C23A C44U | 0.08
C23A U76C | 0.21
C23G G63U | 0.32
G22A U60C | 0.28
G22A U60A | 0.08
C23A U72A | 0.08
C23A U72C | 0.41
G22A U72C | 0.23
C23A G36U | 0.25
C23G U25C | 0.28
G22U A35U | 0.09
C23A C34U | 0.22
A21U C68A | 0.32
A21U C68U | 0.44
G22U A28U | 0.17

Variant | self-cleavage
G22U A28G | 0.17
G22U C59U | 0.16
G22A A64U | 0.32
G22A A64G | 0.24
C23G U49C | 0.16
C23A A57G | 0.26
C23G U58C | 0.21
C23G A65U | 0.22
A21U C27U | 0.14
A21U C27G | 0.07
G22U A64G | 0.36
C23A U25A | 0.27
C23A U25C | 0.36
A21U G30A | 0.1
G22A G52U | 0.38
G22A U49C | 0.11
A21U U58A | 0.37
A21U U58C | 0.12
C23G C62A | 0.29
G22U U60C | 0.07
G22U U60A | 0.17
A21U A35G | 1.03
A21U A35U | 0.28
A21G U78C | 0.58

Variant | self-cleavage
A21G U78A | 0.53
G22A U78C | 0.19
A21U G52A | 0.33
G22C A57G | 0.32
C23G A28G | 0.17
C23G A28U | 0.23
C23G A45G | 0.21
C23G U54C | 0.28
C23G U54G | 0.26
C23G U54A | 0.26
A21U C62U | 0.01
G22C A56U | 0.14
G22C A56G | 0.21
C23G U74A | 0.28
C23G U74C | 0.41
C23G A77G | 0.67
C23G A77C | 0.27
C23G A77U | 0.36
A21U A64U | 0.13
A21U A64G | 0.18
C23G A57G | 0.16
C23G U51A | 0.16
C23G U51G | 0.5
A21U U49C | 0.22

Variant | self-cleavage
A21U C40U | 0.15
G22U U25C | 0.2
G22A G53A | 0.6
G22A U25A | 0.18
G22U G46A | 0.17
A21U U60A | 0.3
A21U U60G | 0.17
A21U U60C | 0.2
C23A A47G | 0.41
C23A A47U | 0.47
A21U C39A | 0.31
A21U C39U | 0.2
A21U U51A | 0.43
A21U U51C | 0.34
G22A A57G | 0.35
G22C U31A | 0.12
G22A U74C | 0.5
A21U G33A | 0.09
A21U G70C | 0.05
A21U G73A | 0.88
C23A A65G | 0.28
G22C A64G | 0.24
G22C A64U | 0.16
G22C C62U | 0.16

Variant | self-cleavage
A21U G61A | 0.34
A21U U66C | 0.33
A21U U66A | 1.12
G22A U80C | 0.5
A21U U69C | 0.26
G22U U41C | 0.27
G22U U41A | 0.17
A21U U76C | 0.27
A21U U76A | 0.45
A21U U72C | 0.53
A21U U72A | 0.26
A21U U72G | 0.17
A21U C44A | 0.11
C23A G52U | 0.15
A21U U48C | 0.27
A21U U25A | 0.22
A21U U25C | 0.29
C23G C39U | 0.08
A21U A28U | 0.23
A21U A28G | 0.22
A21U A28C | 0.15
C23A U80G | 0.51
C23A U80A | 0.23
C23A U80C | 0.12

Variant | self-cleavage
G22A U69G | 0.06
G22A U69A | 0.24
C23G U72C | 0.13
C23G U72A | 0.04
C23G A75U | 0.07
C23G A75G | 0.14
C23A A64G | 0.53
C23A G73A | 0.23
G22A A56G | 0.17
A21U A47G | 0.38
A21U A47U | 0.1
G22U U66G | 0.17
G22U U66C | 0.52
G22U U31A | 0.32
G22U U31C | 0.11
G22U U72A | 0.15
G22U U72C | 0.3
A21G U69C | 0.27
A21G U69A | 0.27
A21G U69G | 0.33
G22A A47G | 0.48
G22A U48A | 0.07
G22A U48C | 0.19
G22A U48G | 0.32

Variant | self-cleavage
A21U U67A | 0.19
A21U U67C | 0.2
G22C U25C | 0.45
G22A U76C | 0.25
G22C C29U | 0.1
G22C U80G | 0.27
A21U C23G | 0.07
A21U C23U | 0.24
A21U C23A | 0.22
G22C A65G | 0.32
C23G U31C | 0.41
G22A U51C | 0.2
G22A U51G | 0.17
A21U G22A | 0.29
G22A G63A | 0.27
C23G U66C | 0.15
G22C U69C | 0.15
G22U U43A | 0.34
G22U U43C | 0.3
C23A G24A | 0.13
C23A U69C | 0.12
A21G U80C | 0.74
A21G U80A | 0.72
A21G U80G | 0.76

Variant | self-cleavage
A21U C32A | 0.14
G22U A75C | 0.23
G22U A75U | 0.26
G22U A75G | 0.39
C23A C39U | 0.23
A21U U74C | 0.76
A21U U74A | 0.76
G22C A35G | 0.32
G22C A35U | 0.12
G22C U41C | 0.1
G22C U41A | 0.29
A21U A45C | 0.1
A21U A45U | 0.17
A21U A45G | 0.29
C23A A45C | 0.34
C23A A45G | 0.23
C23G U67C | 0.12
C23G U67A | 0.25
A21U U43A | 0.5
A21U U43C | 0.26
C23G A47G | 0.28
C23G U80A | 0.47
G22U U80C | 0.24
G22U U26C | 0.11

Variant | self-cleavage
G22U U26A | 0.26
C23G U78C | 0.28
C23G U78A | 0.32
G22A | 0.29
G22U | 0.27
G22C | 0.26
C23G A64U | 0.26
C23G A64G | 0.08
A21U | 0.37
G22C U78A | 0.06
A21U U41A | 0.26
A21U U41C | 0.34
A21U G53A | 0.29
C23G U69C | 0.08
C23G U69A | 0.12
G22C G55U | 0.22
C23A A56G | 0.2
G22A U58C | 0.27
G22C G53C | 0.07
G22A A65G | 0.23
G22A A65U | 0.08
C23G A56G | 0.23
C23G A56U | 0.4
A21U A77G | 0.37

Variant | self-cleavage
A21G U74C | 0.96
A21G U74A | 1.03
G22A U26C | 0.19
G22A U26A | 0.38
A21U C29U | 0.3
A21U C29A | 0.21
A21G U72A | 0.44
A21G U72G | 0.53
A21G U72C | 0.65
C23A U74A | 0.23
G22A C37A | 0.09
G22U C71U | 0.08
G22C C37G | 0.09
G22C A75U | 0.24
G22C A75G | 0.13
A21U G63C | 0.28
A21U G63A | 0.5
A21U G63U | 0.28
G22U A45G | 0.22
A21U U26C | 0.29
A21U U26A | 0.35
C23A U31C | 0.23
C23A U26A | 0.49
C23A C79A | 0.26

Variant | self-cleavage
C23A U41A | 0.35
C23A U41C | 0.34
A21U C37U | 0.18
G22A U43A | 0.38
G22A U43G | 0.09
A21U C50A | 0.18
A21U C50U | 0.4
C23G C29G | 0.08
C23G C29U | 0.36
G22A U67C | 0.09
G22A U67A | 0.32
C23A C81G | 0.22
A21U A57G | 0.33
A21U G42C | 0.29
C23A U48C | 0.16
C23A G63A | 0.09
G22C U72C | 0.2
C23A U54C | 0.18
G22A U41C | 0.37
G22A U41A | 0.19
G22C U67C | 0.11
G22C U67A | 0.16
